The values that follow come from WO2010029497A1 (dated 2010).

Where a chain is given by its changes, count along the chain named. Names may count otherwise.

In one assay the target is NT3. The experiment in a line: cell-based or functional assay.
Assay [1] has as its target T1, human NGF (human, UniProt P01138 122-241). The assay is described as follows: SPR (BIAcore), 100 RU human NGF on CM5 chip, Fab injected 2 min, 1800 s dissociation.
Assay [2] deals with T1, human NGF. The assay is described as follows: cell-based or functional assay.
The target of assay [3] is T1, human NGF. The assay is described as follows: SPR (BIAcore 3000), human NGF immobilised on CM5 chip, Fab injected.
In assay [4] the target is T1, human NGF. The experiment in a line: SPR (BIAcore 3000), human NGF immobilised on CM5 chip.
For assay [5], the target named is T1, human NGF. The experiment in a line: SPR (BIAcore) screening assay, human NGF on chip, Fab from small culture lysates.
The target of assay [6] is T1, human NGF. The assay is described as follows: SPR (BIAcore), human NGF immobilised on CM5 chip.
In a further assay the target is rat NGF (rat, UniProt P25427 122-241). The experiment in a line: cell-based or functional assay.
Chain of rat NGF (P25427 122-241 limits assumed): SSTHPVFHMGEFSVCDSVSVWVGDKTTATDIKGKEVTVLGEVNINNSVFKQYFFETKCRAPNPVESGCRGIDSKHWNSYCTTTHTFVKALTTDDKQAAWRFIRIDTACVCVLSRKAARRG
Assay [7] deals with T1, human NGF. The experiment in a line: summary sentence of the binding properties (BIAcore); its table is not reproduced in this copy.

T1 sequence (P01138 122-241 limits assumed): as the sequence (P25427 122-241 limits assumed) above, with T3S, V6I, M9R, T37M, A60D, E65D, T92M, D94G, A117V, G120A counted along it
Chain of NT3 (P20783 139-257): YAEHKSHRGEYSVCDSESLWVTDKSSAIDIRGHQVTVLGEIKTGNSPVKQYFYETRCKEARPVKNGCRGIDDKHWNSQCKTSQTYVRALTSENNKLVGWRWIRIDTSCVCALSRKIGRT

In the assay with NT3, antibody E3 (full antibody) registered an inhibition of survival of trigeminal neurons promoted by NT3 of over 200 nM.

In the assay with human NGF [1], “Fab fragment of mouse anti-NGF monoclonal antibody 911” displayed a Kd of 3.7 nM, a koff of 8.4e-05 s⁻¹ and a kon of 22000 M⁻¹ s⁻¹. In the assay with human NGF [2], this molecule returned a concentration that totally blocked NGF-elicited survival of trigeminal neurons of 20 nM. Besides, the Kd with human NGF [3] is 10 nM.

B1: 8L2-4D5 (CDR-grafted antibody, the template) (Fab, V domains shown)
VH: QVQLQESGPGLVKPSETLSLTCTVSGFSLIGYDINWIRQPPGKGLEWIGMIWGDGTTDYNSALKSRVTISVDTSKNQFSLKLSSVTAADTAVYYCARGGYYYGTSYYFDYWGQGTLVTVS
VL: DIQMTQSPSSLSASVGDRVTITCRASQDISNHLNWYQQKPGKAPKLLIYYISRFHSGVPSRFSGSGSGTDFTFTISSLQPEDIATYYCQQSKTLPYTFGQGTKLEIKR
notes: expressed in E. coli with human kappa constant domain (GenBank CAA09181) and CH1 of human IgG2a (P01859)
In the assay with human NGF [4], B1 came in with a Kd of about 38 nM.

B2: 8L2-6D5 (CDR-grafted antibody with the framework mutation V71K) (Fab, V domains shown)
VH: B1 VH with V71K
VL: B1 VL
notes: Fab with human CH1 (IgG2a) and kappa constant domains, his tag at the C terminus of the heavy chain; also called clone 8L2-6D5; Fab 8L2-6D5
B2 had a koff with human NGF [5] of 0.001 s⁻¹. The Kd in the assay with human NGF [3] was about 15 nM.

B3: H19-L129 (Fab, V domains shown)
VH: B1 VH with I34L, M50I, L63V, V71K
VL: B1 VL with D28S, H32N, I51T
notes: carries I34L, M50I, L63V (heavy) and D28S, H32N, I51T (light) with the grafted H3 and L3 CDRs, so it is E3 without Y101W, G103A, S91E, K92H; Fab with human CH1 (IgG2a) and kappa constant domains; also called Fab H19-L129; combined clone H19-L129
B3: in the assay with human NGF [6], the Kd was about 1 nM.

B4: Fab E3 (Fab, V domains shown)
VH: B1 VH with I34L, M50I, L63V, V71K, Y101W, G103A
VL: B1 VL with D28S, H32N, I51T, S91E, K92H
notes: Fab made in HEK293 cells, purified on Ni-NTA; also called 3E; Fab 3E
In the assay with human NGF [1], B4 gave a dissociation constant (Kd) of about 0.07 nM, a koff of about 4.2e-05 s⁻¹ and a kon of about 600000 M⁻¹ s⁻¹. In addition, in the assay with rat NGF, the “IC50, inhibition of rat NGF-dependent survival of mouse E13.5 trigeminal neurons, 1.5 pM rat NGF” value was about 1.3 pM and the “IC50, inhibition of rat NGF-dependent survival of mouse E13.5 trigeminal neurons, 15 pM rat NGF” value is about 31.6 pM. For the same molecule, in the assay with human NGF [2], the “IC50, inhibition of human NGF-dependent survival of mouse E13.5 trigeminal neurons, 1.5 pM human NGF” value is about 1.2 pM and the “IC50, inhibition of human NGF-dependent survival of mouse E13.5 trigeminal neurons, 15 pM human NGF” value was about 21 pM. The “fold higher binding affinity than parent mouse antibody 911” value in the assay with human NGF [7] was about 50 fold.

B5: Fab 3C (Fab, V domains shown)
VH: B1 VH with I34L, M50I, L63V, V71K, Y101W, G103A
VL: B1 VL with D28S, H32N, I51T, S91E, K92R
notes: Fab from HEK293 cells
In turn, B5 displayed a Kd with human NGF [1] of about 0.35 nM.
